Data taken from PMC6703689, “The heterogeneous nuclear ribonucleoprotein hnRNPM inhibits RNA virus-triggered innate immunity by antagonizing RNA sensing of RIG-I-like receptors” (PLoS Pathogens, 2019).

T1: Flag-RIG-I, purified from transfected HEK293 cells (human, UniProt O95786 1-925)
T1 construct: RIG-I, human; Flag-RIG-I plasmid; also called Flag-tagged RIG-I; recombinant RIG-I
T1 sequence (looked up): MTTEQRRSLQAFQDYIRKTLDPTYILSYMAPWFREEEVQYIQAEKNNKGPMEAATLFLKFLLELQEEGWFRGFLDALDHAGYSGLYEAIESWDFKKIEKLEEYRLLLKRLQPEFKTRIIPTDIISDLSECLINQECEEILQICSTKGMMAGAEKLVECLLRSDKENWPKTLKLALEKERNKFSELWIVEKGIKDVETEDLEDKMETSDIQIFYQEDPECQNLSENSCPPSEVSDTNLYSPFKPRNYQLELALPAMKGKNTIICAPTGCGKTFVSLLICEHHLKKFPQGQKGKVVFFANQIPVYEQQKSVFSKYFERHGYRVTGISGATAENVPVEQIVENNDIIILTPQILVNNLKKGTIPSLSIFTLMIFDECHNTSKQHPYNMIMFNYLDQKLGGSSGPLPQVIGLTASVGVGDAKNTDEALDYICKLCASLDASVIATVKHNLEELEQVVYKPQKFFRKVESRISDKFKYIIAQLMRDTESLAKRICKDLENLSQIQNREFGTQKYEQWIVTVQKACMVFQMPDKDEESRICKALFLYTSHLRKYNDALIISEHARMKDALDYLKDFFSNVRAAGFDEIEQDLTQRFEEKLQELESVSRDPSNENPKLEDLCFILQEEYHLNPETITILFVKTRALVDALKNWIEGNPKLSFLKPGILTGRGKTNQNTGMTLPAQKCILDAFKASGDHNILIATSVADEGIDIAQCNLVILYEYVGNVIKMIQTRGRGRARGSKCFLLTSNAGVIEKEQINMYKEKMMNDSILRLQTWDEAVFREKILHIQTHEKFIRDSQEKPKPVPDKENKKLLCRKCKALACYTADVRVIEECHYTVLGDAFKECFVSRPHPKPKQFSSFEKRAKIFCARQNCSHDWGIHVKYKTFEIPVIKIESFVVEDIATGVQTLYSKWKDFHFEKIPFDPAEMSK

T2: recombinant MDA5 (280-1,025) (pGEX6p-1-GST-MDA5 (280-1025)) (human, UniProt Q9BYX4 280-1025)
T2 construct: MDA5, human, residues 280-1025; cloned in pGEX-6p-1; No cleavage of GST is told; the MST methods call the same preparation GST-MDA5; source: E. coli BL21, purified (GST resins, eluted with reduced glutathione)
T2 sequence (looked up): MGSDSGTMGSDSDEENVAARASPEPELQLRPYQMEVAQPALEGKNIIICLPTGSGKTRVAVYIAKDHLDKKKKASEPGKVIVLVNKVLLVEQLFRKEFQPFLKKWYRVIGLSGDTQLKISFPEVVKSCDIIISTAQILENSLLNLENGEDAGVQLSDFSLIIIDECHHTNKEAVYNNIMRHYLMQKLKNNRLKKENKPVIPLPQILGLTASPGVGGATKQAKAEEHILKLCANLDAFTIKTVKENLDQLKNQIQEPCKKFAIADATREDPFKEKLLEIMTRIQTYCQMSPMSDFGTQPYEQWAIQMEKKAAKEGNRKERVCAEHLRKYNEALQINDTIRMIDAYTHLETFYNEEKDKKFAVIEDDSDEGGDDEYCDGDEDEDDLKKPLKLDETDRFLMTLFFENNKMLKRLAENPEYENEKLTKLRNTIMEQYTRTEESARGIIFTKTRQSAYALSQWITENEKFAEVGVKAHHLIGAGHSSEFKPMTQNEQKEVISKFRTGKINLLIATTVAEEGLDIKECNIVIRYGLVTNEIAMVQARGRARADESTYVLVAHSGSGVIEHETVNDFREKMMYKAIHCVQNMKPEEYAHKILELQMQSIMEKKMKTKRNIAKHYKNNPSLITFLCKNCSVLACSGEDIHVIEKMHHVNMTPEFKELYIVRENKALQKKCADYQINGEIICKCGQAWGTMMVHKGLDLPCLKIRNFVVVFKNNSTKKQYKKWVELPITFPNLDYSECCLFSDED


Assays:
GST-MDA5(280-1025) = assay: MST; details: MST: PBS with 100 mM Tris-HCl pH 8.8, 20 nM Cy5-dsRNA, 25 C, GST as negative control, pull-down: HEK293 lysate, biotinylated RNA, streptavidin beads
GST-hnRNPM (human) = assay: MST; details: MST: PBS with 100 mM Tris-HCl pH 8.8, 20 nM Cy5-dsRNA, 25 C, GST as negative control; pull-down: HEK293 lysate, biotinylated RNA, streptavidin beads
Flag-RIG-I = assay: MST; details: MST: PBS with 100 mM Tris-HCl pH 8.8, 20 nM Cy5-dsRNA, 25 C, GST as negative control, pull-down: HEK293 lysate, biotinylated RNA, streptavidin beads
[1] = target: T1, Flag-RIG-I, purified from transfected …; assay: pull-down; purified recombinant proteins incubated in PBS with RNase I at 4°C for 3 hours, then immunoprecipitated with anti-MDA5 and protein G beads or with anti-Flag affinity gel at 4°C for 2 hours; immunoblots; details: both partners purified
[2] = target: T2, recombinant MDA5 (280-1,025) …; assay: as above; details: both partners purified

Row | Molecule | Kd (GST-MDA5(280-1025)) [nM] | binding signal (fold decrease of affinity) (GST-MDA5(280-1025); recombinant hnRNPM present) | Kd (GST-hnRNPM (human)) [nM] | Kd (Flag-RIG-I) [nM] | binding signal (fold decrease of affinity) (Flag-RIG-I; recombinant hnRNPM present) | binding result [1] | binding result [2]
1 | 25 bp dsRNA | 131 | 3 | 22.1 | 69 | 10 |  | 
2 | recombinant hnRNPM (pGEX6p-1-GST-hnRNPM) (natural protein, human, UniProt P52272 1-730, looked up, hnRNPM, human; cloned in pGEX-6p-1; No cleavage of GST is told; the MST methods call the same preparation GST-hnRNPM, so the tag was probably still on the protein in the pull-down; source: E. coli BL21, purified (GST resins, eluted with reduced glutathione)) MAAGVEAAAEVAATEIKMEEESGAPGVPSGNGAPGPKGEGERPAQNEKRKEKNIKRGGNRFEPYANPTKRYRAFITNIPFDVKWQSLKDLVKEKVGEVTYVELLMDAEGKSRGCAVVEFKMEESMKKAAEVLNKHSLSGRPLKVKEDPDGEHARRAMQKVMATTGGMGMGPGGPGMITIPPSILNNPNIPNEIIHALQAGRLGSTVFVANLDYKVGWKKLKEVFSMAGVVVRADILEDKDGKSRGIGTVTFEQSIEAVQAISMFNGQLLFDRPMHVKMDERALPKGDFFPPERPQQLPHGLGGIGMGLGPGGQPIDANHLNKGIGMGNIGPAGMGMEGIGFGINKMGGMEGPFGGGMENMGRFGSGMNMGRINEILSNALKRGEIIAKQGGGGGGGSVPGIERMGPGIDRLGGAGMERMGAGLGHGMDRVGSEIERMGLVMDRMGSVERMGSGIERMGPLGLDHMASSIERMGQTMERIGSGVERMGAGMGFGLERMAAPIDRVGQTIERMGSGVERMGPAIERMGLSMERMVPAGMGAGLERMGPVMDRMATGLERMGANNLERMGLERMGANSLERMGLERMGANSLERMGPAMGPALGAGIERMGLAMGGGGGASFDRAIEMERGNFGGSFAGSFGGAGGHAPGVARKACQIFVRNLPFDFTWKMLKDKFNECGHVLYADIKMENGKSKGCGVVKFESPEVAERACRMMNGMKLSGREIDVRIDRNA |  |  |  |  |  | binds | binds
